Key:
Test in all cases: flow
[1] = target: T1, DC-SIGN (DC-SIGNR/CD299) (Homo sapiens) (UniProt Q9H2X3); conditions: after the 5' primer region all dT replaced by 4 (alpha-D-mannose-triazole-modified C8-alkyne-dU); particle-displayed; SB with Mg, Ca, Mn
T1 sequence: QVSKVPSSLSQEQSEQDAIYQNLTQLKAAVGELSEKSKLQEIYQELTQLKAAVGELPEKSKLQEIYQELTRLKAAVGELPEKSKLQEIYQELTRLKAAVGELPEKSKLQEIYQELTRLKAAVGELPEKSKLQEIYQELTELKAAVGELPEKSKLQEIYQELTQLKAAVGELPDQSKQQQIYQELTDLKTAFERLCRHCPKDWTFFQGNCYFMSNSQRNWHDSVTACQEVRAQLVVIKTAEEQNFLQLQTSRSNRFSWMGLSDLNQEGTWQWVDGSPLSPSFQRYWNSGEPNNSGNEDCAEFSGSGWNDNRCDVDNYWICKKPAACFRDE

[2] = target: T2, DC-SIGN (SIGNR1/CD209b) (Mus musculus) (UniProt Q8CJ91); conditions: after the 5' primer region all dT replaced by 4 (alpha-D-mannose-triazole-modified C8-alkyne-dU); counter-target; 3.5-fold weaker than human
T2 sequence: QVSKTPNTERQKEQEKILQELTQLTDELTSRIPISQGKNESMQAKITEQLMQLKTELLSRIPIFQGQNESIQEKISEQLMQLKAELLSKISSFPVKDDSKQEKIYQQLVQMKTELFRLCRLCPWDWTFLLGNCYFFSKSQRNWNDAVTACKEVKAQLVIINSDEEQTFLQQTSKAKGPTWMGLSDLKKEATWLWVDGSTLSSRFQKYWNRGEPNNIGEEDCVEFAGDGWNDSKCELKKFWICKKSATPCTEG

[3] = target: T3, Pisum sativum agglutinin (PSA) (Pisum sativum) (UniProt P02867+P02867); conditions: counter-target
T3 sequence 1: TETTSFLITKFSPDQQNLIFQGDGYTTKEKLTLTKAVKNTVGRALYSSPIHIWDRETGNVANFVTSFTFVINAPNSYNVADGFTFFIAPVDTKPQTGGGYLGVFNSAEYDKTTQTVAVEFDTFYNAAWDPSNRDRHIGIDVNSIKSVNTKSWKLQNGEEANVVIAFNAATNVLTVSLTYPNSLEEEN
T3 sequence 2: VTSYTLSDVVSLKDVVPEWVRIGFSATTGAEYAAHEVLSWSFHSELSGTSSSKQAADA

## GATCCCAGTCCGAAGTAATCCAAGGGTAATTGGGAAATAAGGATGGGGTAATATGCAACCCTTGTGCAAACGGCTATAGG [D1]
[1]
  Kd: 3.6 nM
[2]
  Kd: 12.5 nM

## GATCCCAGTCCGAAGTAATCGTTGCATCTGCACGACTGGTGAGCTTGAGTGGCAGAAGAACTTGTGCAAACGGCTATAGG [3-1]
[3]; after the 5' primer region (GATCCCAGTCCGAAGTAATC, natural) all dT replaced by 4 (alpha-D-mannose-triazole-modified C8-alkyne-dU) and all dC by 2 (5-formyl-dC)
  Kd: > 1000 nM

## GATCCCAGTCCGAAGTAATCGTTGCATCTGCACGACTGGTGAGCTTGAGTGGCAGAAGAACTTGTGCAAACGGCTATAGG [3-1m]
[3]; after the 5' primer region all dT replaced by 4 (alpha-D-mannose-triazole-modified C8-alkyne-dU), natural dC
  Kd: > 1000 nM
